This note sets out measurements from patent US12565506B2, “Nitrogen-containing macrocyclic conjugates as radiopharmaceuticals” (Clarity Pharmaceuticals Ltd., priority 2008, dated 2026).

This data set can be described thus: Serum stability of 64Cu-labelled Sar-peptides by radio-HPLC. It counts as in vitro ADME. Conditions: human male AB serum, 37° C. As for the experimental part:
Human male AB serum (200 μL) was added to a solution of [^64CuL^1-Tyr^3-octreotate]^2+ (200 μL). This solution was incubated in a water bath at 37° C. At time points of 1 hr, 4 hr and 20 hr an aliquot of this serum solution (100 μL) was removed for radio-HPLC analysis: acetonitrile (200 μL) was added to the serum aliquot to precipitate serum proteins. This mixture was filtered and the acetonitrile evaporated under a stream of argon gas. The final volume was <100 μL. The solution was frozen at −70° C. until injection onto the HPLC column. 1 hr: Retention time 12.716 min, >95% radiochemical yield; 4 hr: Retention time 12.725 min, >95% radiochemical yield; 20 hr: Retention time 12.800 min, >95% radiochemical yield.
A single time point serum stability study for [^64CuL^1-Lys3-bombesin]^2+ was conducted in the same way as studies for [^64CuL^1-Tyr^3-octreotate]^2+. An aliquot of [^64CuL^1-Lys3-bombesin]^2+ (200 μL) was added to human male AB serum and incubated at 37° C. After 2 hr, the sample was subjected to the same treatment as described above and injected onto the HPLC column. 2 hr: Retention time 12.828 min, >95% radiochemical yield.

Consider `CC(O)[C@H](NC(=O)C1CSSC[C@H](NC(=O)[C@@H](Cc2ccccc2)NC(=O)CCCC(=O)N[C@]23CNCCNC[C@]4(N)C[N]5CC[N](C2)[Cu]52([CH3])([CH3])[N](CC[N]2C3)C4)C(=O)N[C@@H](Cc2ccc(O)cc2)C(=O)N[C@H](Cc2c[nH]c3ccccc23)C(=O)N[C@@H](CCCCN)C(=O)N[C@@H](C(C)O)C(=O)N1)C(=O)O` (stereo partly shown) [[^64CuL^1-Tyr^3-octreotate]^2+], for which the “radiochemical yield (intact complex by radio-HPLC) after incubation in serum” value was more than 95% (1 hr), more than 95% (4 hr) and more than 95% (20 hr).

For the compound `CSCC[C@H](NC(=O)[C@H](CC(C)C)NC(=O)[C@H](Cc1c[nH]cn1)NC(=O)CNC(=O)[C@@H](NC(=O)[C@H](C)NC(=O)[C@H](Cc1c[nH]c2ccccc12)NC(=O)[C@H](CCC(N)=O)NC(=O)[C@H](CC(N)=O)NC(=O)CNC(=O)[C@H](CC(C)C)NC(=O)[C@H](CCCCNC(=O)CCCC(=O)NC12CNCCNCC(N)(CNCCNC1)CNCCNC2)NC(=O)[C@H](CCC(N)=O)NC(=O)[C@@H]1CCC(=O)N1)C(C)C)C(N)=O` (64Cu complex, metal not drawn) [[^64CuL^1-Lys3-bombesin]^2+], the “radiochemical yield (intact complex by radio-HPLC) after incubation in serum” value (2 hr) is more than 95%.
